T1: PaIDH1 (Pseudomonas aeruginosa, UniProt Q9I0L5)
T1 construct: gene icd; full length, 418 aa, 6xHis-tag, pET-28b(+) NdeI/XhoI, E. coli Rosetta (DE3), 45 kDa subunit, homodimer
T1 sequence (Q9I0L5 1-418): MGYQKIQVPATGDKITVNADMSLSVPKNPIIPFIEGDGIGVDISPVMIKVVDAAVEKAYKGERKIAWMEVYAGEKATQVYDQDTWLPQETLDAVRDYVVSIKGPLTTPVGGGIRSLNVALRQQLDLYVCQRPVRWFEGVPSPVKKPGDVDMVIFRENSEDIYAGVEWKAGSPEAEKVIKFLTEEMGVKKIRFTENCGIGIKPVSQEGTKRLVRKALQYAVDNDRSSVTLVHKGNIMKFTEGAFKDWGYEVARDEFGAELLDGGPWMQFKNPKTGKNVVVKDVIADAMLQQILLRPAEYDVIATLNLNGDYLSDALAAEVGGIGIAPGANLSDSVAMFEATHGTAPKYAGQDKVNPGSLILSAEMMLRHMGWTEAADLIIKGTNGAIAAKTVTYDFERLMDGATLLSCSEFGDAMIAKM

T2: PaIDH2 (Pseudomonas aeruginosa, UniProt Q9I0L4)
T2 construct: gene idh; full length, 741 aa, 6xHis-tag, pET-28b(+) NdeI/XhoI, E. coli Rosetta (DE3), 81 kDa subunit, oligomer depends on salt (176-320 kDa)
T2 sequence (Q9I0L4 1-741): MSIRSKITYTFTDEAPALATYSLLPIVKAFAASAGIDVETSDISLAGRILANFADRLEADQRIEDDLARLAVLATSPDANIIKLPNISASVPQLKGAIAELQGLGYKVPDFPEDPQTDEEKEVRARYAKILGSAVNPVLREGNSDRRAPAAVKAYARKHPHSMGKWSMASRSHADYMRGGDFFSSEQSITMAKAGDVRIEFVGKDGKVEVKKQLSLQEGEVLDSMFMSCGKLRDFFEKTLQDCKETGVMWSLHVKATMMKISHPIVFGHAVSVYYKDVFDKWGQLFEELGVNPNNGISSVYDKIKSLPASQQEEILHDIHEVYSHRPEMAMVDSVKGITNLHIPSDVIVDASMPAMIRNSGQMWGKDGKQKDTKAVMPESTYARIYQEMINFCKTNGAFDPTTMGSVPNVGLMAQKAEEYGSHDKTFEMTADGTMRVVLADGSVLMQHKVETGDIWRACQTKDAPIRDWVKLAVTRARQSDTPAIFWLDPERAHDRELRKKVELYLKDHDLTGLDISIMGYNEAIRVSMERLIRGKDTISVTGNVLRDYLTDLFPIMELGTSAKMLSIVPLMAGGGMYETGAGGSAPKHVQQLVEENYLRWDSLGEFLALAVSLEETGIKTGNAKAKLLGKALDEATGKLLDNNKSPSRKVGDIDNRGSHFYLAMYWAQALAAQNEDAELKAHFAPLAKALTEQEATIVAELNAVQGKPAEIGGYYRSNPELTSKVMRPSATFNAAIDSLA

B1: PaIDH1 (Pseudomonas aeruginosa PAO1) (protein)
chain: T1 sequence (Q9I0L5 1-418)
notes: full length, 418 aa, 6xHis-tag, pET-28b(+) NdeI/XhoI, E. coli Rosetta (DE3), 45 kDa subunit, homodimer
B2: PaIDH2 (Pseudomonas aeruginosa PAO1) (protein)
chain: T2 sequence (Q9I0L4 1-741)
notes: full length, 741 aa, 6xHis-tag, pET-28b(+) NdeI/XhoI, E. coli Rosetta (DE3), 81 kDa subunit, oligomer depends on salt (176-320 kDa)

How the values were obtained:
PaIDH1 = biological target: T1, PaIDH1; test: effect on IDH activity, product formation; format: biochemical; details: read-out: Relative Activity (%) / PaIDH1
Excerpt: effect on IDH activity, product formation on PaIDH1

PaIDH2 = biological target: T2, PaIDH2; test: effect on IDH activity, product formation; format: biochemical; details: read-out: Relative Activity (%) / PaIDH2
Excerpt: effect on IDH activity, product formation on PaIDH2

purified protein [1] = substrate: O=C(O)CC(C(=O)O)C(O)C(=O)O; test: purified protein; format: biochemical, Pseudomonas aeruginosa; details: 500 μM NADP+, 2 mM MnCl2, 50 mM Tris-HCl pH 7.5, 25 °C
purified protein [2] = substrate: NC(=O)c1ccc[n+]([C@@H]2O[C@H](COP(=O)(O)OP(=O)(O)OC[C@H]3O[C@@H](n4cnc5c(N)ncnc54)[C@H](OP(=O)(O)O)[C@@H]3O)[C@@H](O)[C@H]2O)c1; test: purified protein; format: biochemical, Pseudomonas aeruginosa; details: 1 mM DL-isocitrate, 2 mM MnCl2, 50 mM Tris-HCl pH 7.5, 25 °C, varied: cofactor

Molecule	activity at 2000 µM (PaIDH1) [%]	activity at 2000 µM (PaIDH2) [%]	Km (purified protein [1]) [µM]	kcat (purified protein [1]) [s⁻¹]	kcat/Km (purified protein [1]) [M⁻¹ s⁻¹]	Km (purified protein [2]) [µM]	kcat (purified protein [2]) [s⁻¹]	kcat/Km (purified protein [2]) [M⁻¹ s⁻¹]
O=C(O)CC(=O)C(=O)O [OAA]	77.5 ± 4.56							
Nc1ncnc2c1ncn2[C@@H]1O[C@H](COP(=O)(O)OP(=O)(O)OP(=O)(O)O)[C@@H](O)[C@H]1O [ATP]		75.9 ± 5.92						
O=C(O)CCC(=O)C(=O)O [α-KG]	79.5 ± 4.64	82.8 ± 5.65						
Nc1ncnc2c1ncn2[C@@H]1O[C@H](COP(=O)(O)OP(=O)(O)O)[C@@H](O)[C@H]1O [ADP]	81.8 ± 3.55	82.7 ± 3.37						
B1			14.41 ± 1.82	29.3 ± 10.9	2.1e+06 ± 930000	20.00 ± 6.29	105 ± 19.9	5.42e+06 ± 970000
B2			23.61 ± 1.21	171 ± 6.77	7.26e+06 ± 130000	30.68 ± 2.73	134 ± 17	4.42e+06 ± 1.13e+06
